Sequences and labels used below:
B1: Abp1 WT (protein, UniProt P15891 2-592, looked up)
Actin-binding protein: ALEPIDYTTHSREIDAEYLKIVRGSDPDTTWLIISPNAKKEYEPESTGSSFHDFLQLFDETKVQYGLARVSPPGSDVEKIIIIGWCPDSAPLKTRASFAANFAAVANNLFKGYHVQVTARDEDDLDENELLMKISNAAGARYSIQTSSKQQGKASTPPVKKSFTPSKSPAPVSKKEPVKTPSPAPAAKISSRVNDNNDDDDWNEPELKERDFDQAPLKPNQSSYKPIGKIDLQKVIAEEKAKEDPRLVQKPTAAGSKIDPSSDIANLKNESKLKRDSEFNSFLGTTKPPSMTESSLKNDDDKVIKGFRNEKSPAQLWAERKAKQNSGNAETKAEAPKPEVPEDEPEGEPDVKDLKSKFEGLAASEKEEEEMENKFAPPPKKSEPTIISPKPFSKPQEPVKAEEAEQPKTDYKKIGNPLPGMHIEADNEEEPEENDDDWDDDEDEAAQPPLPSRNVASGAPVQKEEPEQEEIAPSLPSRNSIPAPKQEEAPEQAPEEEIEEEAEEAAPQLPSRSSAAPPPPPRRATPEKKPKENPWATAEYDYDAAEDNELTFVENDKIINIEFVDDDWWLGELEKDGSKGLFPSNYVSLGN
B2: Bem1 WT (protein, UniProt P29366 1-551, looked up)
Bud emergence protein 1: MLKNFKLSKRDSNGSKGRITSADISTPSHDNGSVIKHIKTVPVRYLSSSSTPVKSQRDSSPKNRHNSKDITSPEKVIKAKYSYQAQTSKELSFMEGEFFYVSGDEKDWYKASNPSTGKEGVVPKTYFEVFDRTKPSSVNGSNSSSRKVTNDSLNMGSLYAIVLYDFKAEKADELTTYVGENLFICAHHNCEWFIAKPIGRLGGPGLVPVGFVSIIDIATGYATGNDVIEDIKSVNLPTVQEWKSNIARYKASNISLGSVEQQQQQSITKPQNKSAKLVDGELLVKASVESFGLEDEKYWFLVCCELSNGKTRQLKRYYQDFYDLQVQLLDAFPAEAGKLRDAGGQWSKRIMPYIPGPVPYVTNSITKKRKEDLNIYVADLVNLPDYISRSEMVHSLFVVLNNGFDREFERDENQNNIKTLQENDTATFATASQTSNFASTNQDNTLTGEDLKLNKKLSDLSLSGSKQAPAQSTSGLKTTKIKFYYKDDIFALMLKGDTTYKELRSKIAPRIDTDNFKLQTKLFDGSGEEIKTDSQVSNIIQAKLKISVHDI
B3: Bzz1 WT (protein, UniProt P38822 1-633, looked up)
Protein BZZ1: MSADLSIGNEIKDSFKETHKWVQNNLKWLKDIEQFYRERAKLEKDYSERLSRLSAEYFNKKSSTSVPISVGDTPTTTPGSIEAAGVVAWNEILSQTDMISKDHDQLSTDFENHVANQLSGLFTKLDMTLSKINGFNNDMVNKKDNIYHELEKAKKDYDEACSTMEMARNRYTKASNDRNKKKLDEKEMEMNKCKNEYLIKINQANRTKDKYYFQDVPEVLDLLQDVNEAKTLFLNDLWLKAASVENDLGANVSKRLQAANSVVKQNKPSLNTAIFIKHNLKNWKEPQDFVYKPSPVWHDDEKFAVPSSLEVEDLRIKLAKAENDYNSLQDKTQNELSKLSTLNKIKHEMKTNEDNINATKFYDTLKEYLNVVSPFTSHETLKLQAEVQIESIQNNVPEEYDLSTDNIDLSKTKKKSGIFSKFKHNILNVDSKPSSGGSTGNGNGGPLHITSLFNTSRRTRLGSAPNNAGEDSDNNSIRTTSTNNTKKTTQNSSDDGKNKVLYAYVQKDDDEITITPGDKISLVARDTGSGWTKINNDTTGETGLVPTTYIRISSAATVKANDRGPAPEVPPPRRSTLPVRTMEAIYAYEAQGDDEISIDPGDIITVIRGDDGSGWTYGECDGLKGLFPTSYCK
B4: Sla1 WT (protein, UniProt P32790 1-1244, looked up)
Actin cytoskeleton-regulatory …: MTVFLGIYRAVYAYEPQTPEELAIQEDDLLYLLQKSDIDDWWTVKKRVIGSDSEEPVGLVPSTYIEEAPVLKKVRAIYDYEQVQNADEELTFHENDVFDVFDDKDADWLLVKSTVSNEFGFIPGNYVEPENGSTSKQEQAPAAAEAPAATPAAAPASAAVLPTNFLPPPQHNDRARMMQSKEDQAPDEDEEGPPPAMPARPTATTETTDATAAAVRSRTRLSYSDNDNDDEEDDYYYNSNSNNVGNHEYNTEYHSWNVTEIEGRKKKKAKLSIGNNKINFIPQKGTPHEWSIDKLVSYDNEKKHMFLEFVDPYRSLELHTGNTTTCEEIMNIIGEYKGASRDPGLREVEMASKSKKRGIVQYDFMAESQDELTIKSGDKVYILDDKKSKDWWMCQLVDSGKSGLVPAQFIEPVRDKKHTESTASGIIKSIKKNFTKSPSRSRSRSRSKSNANASWKDDELQNDVVGSAAGKRSRKSSLSSHKKNSSATKDFPNPKKSRLWVDRSGTFKVDAEFIGCAKGKIHLHKANGVKIAVAADKLSNEDLAYVEKITGFSLEKFKANDGSSSRGTDSRDSERERRRRLKEQEEKERDRRLKERELYELKKARELLDEERSRLQEKELPPIKPPRPTSTTSVPNTTSVPPAESSNNNNSSNKYDWFEFFLNCGVDVSNCQRYTINFDREQLTEDMMPDINNSMLRTLGLREGDIVRVMKHLDKKFGRENIASIPTNATGNMFSQPDGSLNVATSPETSLPQQLLPQTTSPAQTAPSTSAETDDAWTVKPASKSESNLLSKKSEFTGSMQDLLDLQPLEPKKAAASTPEPNLKDLEPVKTGGTTVPAAPVSSAPVSSAPAPLDPFKTGGNNILPLSTGFVMMPMITGGDMLPMQRTGGFVVPQTTFGMQSQVTGGILPVQKTGNGLIPISNTGGAMMPQTTFGAAATVLPLQKTGGGLIPIATTGGAQFPQTSFNVQGQQQLPTGSILPVQKTANGLISANTGVSMPTVQRTGGTMIPQTSFGVSQQLTGGAMMTQPQNTGSAMMPQTSFNAVPQITGGAMMPQTSFNALPQVTGGAMMPLQRTGGALNTFNTGGAMIPQTSFSSQAQNTGGFRPQSQFGLTLQKTGGIAPLNQNQFTGGAMNTLSTGGVLQQQQPQTMNTFNTGGVMQELQMMTTFNTGGAMQQPQMMNTFNTDGIMQQPQMMNTFNTGGAMQQPQQQALQNQPTGFGFGNGPQQSRQANIFNATASNPFGF

We go through four molecules from paper PMC7954794, “Protein context shapes the specificity of SH3 domain-mediated interactions in vivo” (Nature Communications, 2021).

This test concerns SH3-deleted bait proteins (1xFLAG). The experiment in a line: Western blot expression level of SH3-deleted baits (Fig. S1F-G). The class given is cell-based, Saccharomyces cerevisiae. Particulars: Western blot Flag signal, 1xFLAG-tagged WT or SH3-deleted bait; sheet FigS1F-G. Here is the method:
Precultures of yeast cells expressing baits fused with the DHFR F[1,2]-FLAG were grown overnight at 30 °C with agitation in synthetic complete medium. The next day, cells were expanded in synthetic complete medium to reach their exponential phase (OD600 of around 1.0), pelleted, and frozen at −80 °C. The equivalent of fifty OD600 of cells was resuspended in ice-cold yeast lysis buffer (10 mM Tris-HCl pH 7.4, 150 mM NaCl, 0.5 mM EDTA (Millipore Sigma), 1% Triton X-100 (Millipore Sigma), and one cOmplete Mini Protease Inhibitor Cocktail (Millipore Sigma) per 10 mL) with […] glass beads (Millipore Sigma) and disrupted at 4 °C by 10 cycles of 2 min vortexing and 2 min cooldown. The equivalent of […] of lysed cells was used for the immunoprecipitation of the bait proteins using FLAG-M2 agarose beads (Millipore Sigma). The beads were incubated with the cell lysates for 120 min at 4 °C with a slow rotation, followed by three washes with the yeast lysis buffer.
Protein extracts and affinity-purified baits from yeast and human lysed cells were migrated on 10% polyacrylamide gels. The separated proteins were then transferred to nitrocellulose membranes. Validation of correct protein loading was done with ponceau staining of the membranes. Before the primary antibody incubations, membranes were blocked in 5% milk. Protein signals were detected on an Amersham Imager 600RGB (GE Healthcare) following the incubation of the membranes with the appropriate HRP-conjugated secondary antibodies and the Clarity Western ECL Substrate (Bio-Rad). The antibodies used in this study are M2-HRP (A8592, Sigma, 1/50,000), rabbit anti-FLAG (F7425, Sigma, 1/1000), PAK (SC-881, Santa Cruz, 1/200), p130cas/BCAR1 (SC-860, Santa Cruz, 1/200), actin (Cell Signaling Technology, 1/2000), anti-mouse HRP (Cell Signaling Technology, 1/10,000) and anti-rabbit HRP (Cell Signaling Technology, 1/10,000). The quantification of the WB signals was performed with the Amersham Imager 600 analysis software (GE Healthcare).
Background: In western blotting, separated proteins are transferred to a membrane and probed.
With B1, the Flag worked out at 9263.
B2 registered a Flag of 104455.
The molecule B3 gave a Flag of 215050.
B4: the Flag turned out to be 58812.
